Data on one molecule can be found in patent US12721801B2, “Compositions and methods relating to stimulation of hyaluronic acid” (Alastin Skincare, Inc., priority 2020, dated 2026).

Experiment [1] relates to human fibroblast cells. As to the kind of experiment: HA production assessment, SDS-PAGE of fibroblast supernatants. In kind it is cell-based. The settings on record: Experiment 2, primary adult human dermal fibroblasts, 72 hours, octapeptide 100 ug/mL, SymDecanox 250 ug/mL, others 500 ug/mL, FIG. 6. The procedure:
In a second experiment, HA production was also assessed with the test compounds below. Briefly, primary adult human dermal fibroblast cells were cultured until near confluent in 6 well plates. The cells were treated with the compounds and concentrations indicated to the right. After 72 hours, 100 μL of media were collected from each treatment condition and was concentrated in a SpeedVac concentrator to a final volume of ~10 uL.
All 10 μL of the supernatants were loaded onto an acrylamide gel (NuPAGE 4-12% Bis-Tris Protein Gel) and run at 200V for 3 hours. The gel was stained to detect the presence of HA. Data is seen in FIG. 6. […] Lane 11 is the negative control, representing the untreated cells. This band represents the cells constitutive level of HA. Treating the cells with all the indicated compounds (lanes 1-10) produced an increased level of high molecular weight HA. […]

Experiment [2] relates to human dermal fibroblasts. The settings on record: cited from earlier work.

B1: Lactoferrin: a transferrin; wound healing attributes, increases HA secretion (protein, UniProt P02788 20-710, looked up)
Lactotransferrin: GRRRSVQWCAVSQPEATKCFQWQRNMRKVRGPPVSCIKRDSPIQCIQAIAENRADAVTLDGGFIYEAGLAPYKLRPVAAEVYGTERQPRTHYYAVAVVKKGGSFQLNELQGLKSCHTGLRRTAGWNVPIGTLRPFLNWTGPPEPIEAAVARFFSASCVPGADKGQFPNLCRLCAGTGENKCAFSSQEPYFSYSGAFKCLRDGAGDVAFIRESTVFEDLSDEAERDEYELLCPDNTRKPVDKFKDCHLARVPSHAVVARSVNGKEDAIWNLLRQAQEKFGKDKSPKFQLFGSPSGQKDLLFKDSAIGFSRVPPRIDSGLYLGSGYFTAIQNLRKSEEEVAARRARVVWCAVGEQELRKCNQWSGLSEGSVTCSSASTTEDCIALVLKGEADAMSLDGGYVYTAGKCGLVPVLAENYKSQQSSDPDPNCVDRPVEGYLAVAVVRRSDTSLTWNSVKGKKSCHTAVDRTAGWNIPMGLLFNQTGSCKFDEYFSQSCAPGSDPRSNLCALCIGDEQGENKCVPNSNERYYGYTGAFRCLAENAGDVAFVKDVTVLQNTDGNNNEAWAKDLKLADFALLCLDGKRKPVTEARSCHLAMAPNHAVVSRMDKVERLKQVLLHQQAKFGRNGSDCPDKFCLFQSETKNLLFNDNTECLARLHGKTTYEKYLGPQYVAGITNLKKCSTSPLLEACEFLRK
B1: in experiment [1], the “Level of high molecular weight HA (band on gel)” value is given as “secrete high molecular weight HA”. Besides, the HA secretion result in experiment [2] (literature (Saito et al. 2011)) is listed as “increases HA secretion”. Besides, the Proliferation of fibroblasts result in experiment [2] (literature (Saito et al. 2011; Takayama 2012)) was “promotes proliferation of fibroblasts”.
